Data as given in ChEMBL document CHEMBL5620400, “Design, synthesis, antiviral evaluation, and In silico studies of acrylamides targeting nsP2 from Chikungunya virus” (Eur J Med Chem, 2023).
Active and inactive are the calls of the source. The calls are words filed in the database; no cut-off is given here.

What was measured:
Sindbis virus = experiment: Antiviral activity against SINV infected african green monkey Vero cells assessed as inhibition of virus induced cytopathic effect at 100 uM measured after 48 hrs by microscopic imaging analysis; assay type: functional, organism-based
[1] = tested on: COc1ccccc1/C=C/C(=O)Nc1ccccc1; experiment: (§1) Binding affinity to CHIKV nsP2 assessed as Km by measuring fluorescence by multimode microplate reader; details: Chikungunya virus
[2] = tested on: O=C(/C=C/c1ccc(Br)cc1)Nc1ccccc1; experiment: as §1; details: Chikungunya virus
[3] = tested on: O=C(/C=C/c1ccc(C(F)(F)F)cc1)Nc1ccccc1; experiment: as §1; details: Chikungunya virus
[4] = tested on: O=C(/C=C/c1ccc(Cl)cc1Cl)Nc1ccccc1; experiment: as §1; details: Chikungunya virus
[5] = tested on: COc1ccccc1/C=C/C(=O)Nc1ccccc1; experiment: (§2) Binding affinity to CHIKV nsP2 assessed as Vmax (at I = 0) by measuring fluorescence by Lineweaver-Burk plot; details: Chikungunya virus
[6] = tested on: O=C(/C=C/c1ccc(Br)cc1)Nc1ccccc1; experiment: as §2; details: Chikungunya virus
[7] = tested on: O=C(/C=C/c1ccc(C(F)(F)F)cc1)Nc1ccccc1; experiment: as §2; details: Chikungunya virus
[8] = tested on: O=C(/C=C/c1ccc(Cl)cc1Cl)Nc1ccccc1; experiment: as §2; details: Chikungunya virus
[9] = tested on: COc1ccccc1/C=C/C(=O)Nc1ccccc1; experiment: (§3) Binding affinity to CHIKV nsP2 assessed as Vmax (at tested concentration) by measuring fluorescence by Lineweaver-Burk plot; details: Chikungunya virus
[10] = tested on: O=C(/C=C/c1ccc(Br)cc1)Nc1ccccc1; experiment: as §3; details: Chikungunya virus
[11] = tested on: O=C(/C=C/c1ccc(C(F)(F)F)cc1)Nc1ccccc1; experiment: as §3; details: Chikungunya virus
[12] = tested on: O=C(/C=C/c1ccc(Cl)cc1Cl)Nc1ccccc1; experiment: as §3; details: Chikungunya virus

Compound: O=C(/C=C/c1ccc(C(F)(F)F)cc1)Nc1ccccc1
- Activity (Sindbis virus): Active

Compound: O=C(/C=C/c1ccc(Br)cc1)Nc1ccccc1
- Activity (Sindbis virus): Active

Compound: COc1ccccc1/C=C/C(=O)Nc1ccccc1
- Activity (Sindbis virus): Active

Compound: Polyprotein P1234 (Chikungunya virus (strain S27-African prototype) (CHIKV)), Q8JUX6
- Km [1]: 4.9 µM
- Km [2]: 5.4 µM
- Km [3]: 9.7 µM
- Km [4]: 3.5 µM
- Vmax [5]: 0.76
- Vmax [6]: 0.73
- Vmax [7]: 1.57
- Vmax [8]: 0.84
- Vmax [9]: 0.71
- Vmax [10]: 0.87
- Vmax [11]: 1.58
- Vmax [12]: 0.83

Compound: O=C(/C=C/c1ccc(Cl)cc1Cl)Nc1ccccc1
- Activity (Sindbis virus): Active
